Measured values published in patent US20230220042A1 (SHANGHAI JIAO TONG UNIVERSITY SCHOOL OF MEDICINE, published 2023).

T1: Biotin-FcγRIIB (human, UniProt P31994 43-217, limits assumed, biotin-labelled)
T1 construct: Bought, biotin-labelled; used at 1 µg/ml for staining and sorting; also called human FcγRIIB; CD32b
T1 sequence (looked up): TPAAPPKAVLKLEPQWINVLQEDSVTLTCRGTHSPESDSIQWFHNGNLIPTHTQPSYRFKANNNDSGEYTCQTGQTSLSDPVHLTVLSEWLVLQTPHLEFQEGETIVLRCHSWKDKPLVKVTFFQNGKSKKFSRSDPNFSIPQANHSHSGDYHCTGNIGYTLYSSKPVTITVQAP


Tests used:
Biotin-FcγRIIB [1] = target: T1, Biotin-FcγRIIB; assay: magnetic sorting on biotin-FcγRIIB with unlabelled activating FcγRs, NGS; LibraryMix #4
Method: (§1) 3T3 cells were collected by trypsin digestion, and a single cell suspension was prepared. […] The cells were incubated for 15 minutes on ice and then washed twice with MACS buffer and re-suspended in 100 μl MACS buffer. Twenty-five μl anti-Biotin magnetic beads were added, and the cells were incubated for 15 minutes on ice and then washed once with MACS buffer and re-suspended to 500 μl, and added to the LS column put in the magnetic field. The effluent was collected, washed with 3 mL of MACS buffer and collected; The LS column was then removed out of the magnetic field, and 5 mL of MACS buffer was used to rapidly elute the remaining cells from the sorting column to collect positive cells, which are the high I/A ratio cells.
(§2) The high-FcγRIIB-affinity cells obtained from the above flow cytometry sorting are further sorted by magnetic-activated sorting. The cells are incubated with the mixture of Biotin-labeled FcγRIIB and non-labeled activating FcγRs, and then the labeled cells are sorted by anti-Biotin magnetic beads. The enrichment ratios after sorting relative to before sorting are analyzed by NGS.

Biotin-FcγRIIB [2] = target: T1, Biotin-FcγRIIB; assay: magnetic sorting on biotin-FcγRIIB with unlabelled activating FcγRs, NGS; Library2
Method: as §1, §2

Biotin-FcγRIIB [3] = target: T1, Biotin-FcγRIIB; assay: FACS sorting of displayed Fc library on biotin-FcγRIIB, NGS

| Enrichment factor (percentage after sorting/percentage before sorting) (Biotin-FcγRIIB [1]) | Increased factor (mutation enrichment factor/wild-type enrichment factor) (Biotin-FcγRIIB [1]) | Percentage after sorting/unbinding percentage (Biotin-FcγRIIB [1]) | Percentage before sorting/unbinding percentage (Biotin-FcγRIIB [1]) | Enrichment factor (percentage after sorting/percentage before sorting) (Biotin-FcγRIIB [2]) | Increased factor (mutation enrichment factor/wild-type enrichment factor) (Biotin-FcγRIIB [2]) | Percentage after sorting/unbinding percentage (Biotin-FcγRIIB [2]) | Percentage before sorting/unbinding percentage (Biotin-FcγRIIB [2]) | Increased factor b Site 1 (point mutation/wild-type) (Biotin-FcγRIIB [3]) | Increased factor b Site 2 (point mutation/wild-type) (Biotin-FcγRIIB [3]) | Binder |
| --- | --- | --- | --- | --- | --- | --- | --- | --- | --- | --- |
| 3.21 | 3.41 | – | – | – | – | – | – | – | – | human IgG2 anti-mouse CD40 surface displayed antibody, Fc mutant L328A (antibody, name in EU numbering, as m1; positions are Eu numbers; copies: 2 + 2) light chain (with the P2A rest): DTVLTQSPALAVSPGERVTISCRASDSVSTLMHWYQQKPGQQPKLLIYLASHLESGVPARFSGSGSGTDFTLTIDPVEADDTATYYCQQSWNDPWTFGGGTKLELKRTVAAPSVFIFPPSDEQLKSGTASVVCLLNNFYPREAKVQWKVDNALQSGNSQESVTEQDSKDSTYSLSSTLTLSKADYEKHKVYACEVTHQGLSSPVTKSFNRGECGSGATNFSLLKQAGDVEENPG heavy chain: EVQLVESDGGLVQPGRSLKLPCAASGFTFSDYYMAWVRQAPTKGLEWVASISYDGSSTYYRDSVKGRFTISRDNAKSTLYLQMDSLRSEDTATYYCGRHSSYFDYWGQGVMVTVSSASTKGPSVFPLAPCSRSTSESTAALGCLVKDYFPEPVTVSWNSGALTSGVHTFPAVLQSSGLYSLSSVVTVPSSNFGTQTYTCNVDHKPSNTKVDKTVERKCCVECPPCPAPPVAGPSVFLFPPKPKDTLMISRTPEVTCVVVDVSHEDPEVQFNWYVDGVEVHNAKTKPREEQFNSTFRVVSVLTVVHQDWLNGKEYKCKVSNKGAPAPIEKTISKTKGQPREPQVYTLPPSREEMTKNQVSLTCLVKGFYPSDIAVEWESNGQPENNYKTTPPMLDSDGSFFLYSKLTVDKSRWQQGNVFSCSVMHEALHNHYTQKSLSLSPGKLEPPPSTVSNMATVAVLVVLGAAIVTGAVVAFVMKMRRRNTGGKGGDYALAPGSQTSDLSLPDCKVMVHDPHSLA |
| 3.7 | 3.93 | 4.36 | 1.18 | – | – | – | – | – | – | human IgG2 anti-mouse CD40 surface displayed antibody, Fc mutant P238Q/S267E (antibody, name in EU numbering, as m1; positions are Eu numbers; copies: 2 + 2) light chain (with the P2A rest): DTVLTQSPALAVSPGERVTISCRASDSVSTLMHWYQQKPGQQPKLLIYLASHLESGVPARFSGSGSGTDFTLTIDPVEADDTATYYCQQSWNDPWTFGGGTKLELKRTVAAPSVFIFPPSDEQLKSGTASVVCLLNNFYPREAKVQWKVDNALQSGNSQESVTEQDSKDSTYSLSSTLTLSKADYEKHKVYACEVTHQGLSSPVTKSFNRGECGSGATNFSLLKQAGDVEENPG heavy chain: EVQLVESDGGLVQPGRSLKLPCAASGFTFSDYYMAWVRQAPTKGLEWVASISYDGSSTYYRDSVKGRFTISRDNAKSTLYLQMDSLRSEDTATYYCGRHSSYFDYWGQGVMVTVSSASTKGPSVFPLAPCSRSTSESTAALGCLVKDYFPEPVTVSWNSGALTSGVHTFPAVLQSSGLYSLSSVVTVPSSNFGTQTYTCNVDHKPSNTKVDKTVERKCCVECPPCPAPPVAGQSVFLFPPKPKDTLMISRTPEVTCVVVDVEHEDPEVQFNWYVDGVEVHNAKTKPREEQFNSTFRVVSVLTVVHQDWLNGKEYKCKVSNKGLPAPIEKTISKTKGQPREPQVYTLPPSREEMTKNQVSLTCLVKGFYPSDIAVEWESNGQPENNYKTTPPMLDSDGSFFLYSKLTVDKSRWQQGNVFSCSVMHEALHNHYTQKSLSLSPGKLEPPPSTVSNMATVAVLVVLGAAIVTGAVVAFVMKMRRRNTGGKGGDYALAPGSQTSDLSLPDCKVMVHDPHSLA |
| – | – | – | – | 2.77 | 3.33 | 71.2 | 25.7 | 0.1 | – | human IgG2 anti-mouse CD40 surface displayed antibody, Fc mutant P271A (antibody, name in EU numbering, as m1; positions are Eu numbers; copies: 2 + 2) light chain (with the P2A rest): DTVLTQSPALAVSPGERVTISCRASDSVSTLMHWYQQKPGQQPKLLIYLASHLESGVPARFSGSGSGTDFTLTIDPVEADDTATYYCQQSWNDPWTFGGGTKLELKRTVAAPSVFIFPPSDEQLKSGTASVVCLLNNFYPREAKVQWKVDNALQSGNSQESVTEQDSKDSTYSLSSTLTLSKADYEKHKVYACEVTHQGLSSPVTKSFNRGECGSGATNFSLLKQAGDVEENPG heavy chain: EVQLVESDGGLVQPGRSLKLPCAASGFTFSDYYMAWVRQAPTKGLEWVASISYDGSSTYYRDSVKGRFTISRDNAKSTLYLQMDSLRSEDTATYYCGRHSSYFDYWGQGVMVTVSSASTKGPSVFPLAPCSRSTSESTAALGCLVKDYFPEPVTVSWNSGALTSGVHTFPAVLQSSGLYSLSSVVTVPSSNFGTQTYTCNVDHKPSNTKVDKTVERKCCVECPPCPAPPVAGPSVFLFPPKPKDTLMISRTPEVTCVVVDVSHEDAEVQFNWYVDGVEVHNAKTKPREEQFNSTFRVVSVLTVVHQDWLNGKEYKCKVSNKGLPAPIEKTISKTKGQPREPQVYTLPPSREEMTKNQVSLTCLVKGFYPSDIAVEWESNGQPENNYKTTPPMLDSDGSFFLYSKLTVDKSRWQQGNVFSCSVMHEALHNHYTQKSLSLSPGKLEPPPSTVSNMATVAVLVVLGAAIVTGAVVAFVMKMRRRNTGGKGGDYALAPGSQTSDLSLPDCKVMVHDPHSLA |
| 4.26 | 4.53 | – | – | – | – | – | – | – | – | human IgG2 anti-mouse CD40 surface displayed antibody, Fc mutant L328W (antibody, name in EU numbering, as m1; positions are Eu numbers; copies: 2 + 2) light chain (with the P2A rest): DTVLTQSPALAVSPGERVTISCRASDSVSTLMHWYQQKPGQQPKLLIYLASHLESGVPARFSGSGSGTDFTLTIDPVEADDTATYYCQQSWNDPWTFGGGTKLELKRTVAAPSVFIFPPSDEQLKSGTASVVCLLNNFYPREAKVQWKVDNALQSGNSQESVTEQDSKDSTYSLSSTLTLSKADYEKHKVYACEVTHQGLSSPVTKSFNRGECGSGATNFSLLKQAGDVEENPG heavy chain: EVQLVESDGGLVQPGRSLKLPCAASGFTFSDYYMAWVRQAPTKGLEWVASISYDGSSTYYRDSVKGRFTISRDNAKSTLYLQMDSLRSEDTATYYCGRHSSYFDYWGQGVMVTVSSASTKGPSVFPLAPCSRSTSESTAALGCLVKDYFPEPVTVSWNSGALTSGVHTFPAVLQSSGLYSLSSVVTVPSSNFGTQTYTCNVDHKPSNTKVDKTVERKCCVECPPCPAPPVAGPSVFLFPPKPKDTLMISRTPEVTCVVVDVSHEDPEVQFNWYVDGVEVHNAKTKPREEQFNSTFRVVSVLTVVHQDWLNGKEYKCKVSNKGWPAPIEKTISKTKGQPREPQVYTLPPSREEMTKNQVSLTCLVKGFYPSDIAVEWESNGQPENNYKTTPPMLDSDGSFFLYSKLTVDKSRWQQGNVFSCSVMHEALHNHYTQKSLSLSPGKLEPPPSTVSNMATVAVLVVLGAAIVTGAVVAFVMKMRRRNTGGKGGDYALAPGSQTSDLSLPDCKVMVHDPHSLA |
| – | – | – | – | 3.52 | 4.24 | 1090 | 311 | – | 0.7 | human IgG2 anti-mouse CD40 surface displayed antibody, Fc mutant P271V (antibody, name in EU numbering, as m1; positions are Eu numbers; copies: 2 + 2) light chain (with the P2A rest): DTVLTQSPALAVSPGERVTISCRASDSVSTLMHWYQQKPGQQPKLLIYLASHLESGVPARFSGSGSGTDFTLTIDPVEADDTATYYCQQSWNDPWTFGGGTKLELKRTVAAPSVFIFPPSDEQLKSGTASVVCLLNNFYPREAKVQWKVDNALQSGNSQESVTEQDSKDSTYSLSSTLTLSKADYEKHKVYACEVTHQGLSSPVTKSFNRGECGSGATNFSLLKQAGDVEENPG heavy chain: EVQLVESDGGLVQPGRSLKLPCAASGFTFSDYYMAWVRQAPTKGLEWVASISYDGSSTYYRDSVKGRFTISRDNAKSTLYLQMDSLRSEDTATYYCGRHSSYFDYWGQGVMVTVSSASTKGPSVFPLAPCSRSTSESTAALGCLVKDYFPEPVTVSWNSGALTSGVHTFPAVLQSSGLYSLSSVVTVPSSNFGTQTYTCNVDHKPSNTKVDKTVERKCCVECPPCPAPPVAGPSVFLFPPKPKDTLMISRTPEVTCVVVDVSHEDVEVQFNWYVDGVEVHNAKTKPREEQFNSTFRVVSVLTVVHQDWLNGKEYKCKVSNKGLPAPIEKTISKTKGQPREPQVYTLPPSREEMTKNQVSLTCLVKGFYPSDIAVEWESNGQPENNYKTTPPMLDSDGSFFLYSKLTVDKSRWQQGNVFSCSVMHEALHNHYTQKSLSLSPGKLEPPPSTVSNMATVAVLVVLGAAIVTGAVVAFVMKMRRRNTGGKGGDYALAPGSQTSDLSLPDCKVMVHDPHSLA |
| 2.16 | 2.3 | 29.6 | 13.7 | – | – | – | – | – | – | human IgG2 anti-mouse CD40 surface displayed antibody, Fc mutant L328P (antibody, name in EU numbering, as m1; positions are Eu numbers; copies: 2 + 2) light chain (with the P2A rest): DTVLTQSPALAVSPGERVTISCRASDSVSTLMHWYQQKPGQQPKLLIYLASHLESGVPARFSGSGSGTDFTLTIDPVEADDTATYYCQQSWNDPWTFGGGTKLELKRTVAAPSVFIFPPSDEQLKSGTASVVCLLNNFYPREAKVQWKVDNALQSGNSQESVTEQDSKDSTYSLSSTLTLSKADYEKHKVYACEVTHQGLSSPVTKSFNRGECGSGATNFSLLKQAGDVEENPG heavy chain: EVQLVESDGGLVQPGRSLKLPCAASGFTFSDYYMAWVRQAPTKGLEWVASISYDGSSTYYRDSVKGRFTISRDNAKSTLYLQMDSLRSEDTATYYCGRHSSYFDYWGQGVMVTVSSASTKGPSVFPLAPCSRSTSESTAALGCLVKDYFPEPVTVSWNSGALTSGVHTFPAVLQSSGLYSLSSVVTVPSSNFGTQTYTCNVDHKPSNTKVDKTVERKCCVECPPCPAPPVAGPSVFLFPPKPKDTLMISRTPEVTCVVVDVSHEDPEVQFNWYVDGVEVHNAKTKPREEQFNSTFRVVSVLTVVHQDWLNGKEYKCKVSNKGPPAPIEKTISKTKGQPREPQVYTLPPSREEMTKNQVSLTCLVKGFYPSDIAVEWESNGQPENNYKTTPPMLDSDGSFFLYSKLTVDKSRWQQGNVFSCSVMHEALHNHYTQKSLSLSPGKLEPPPSTVSNMATVAVLVVLGAAIVTGAVVAFVMKMRRRNTGGKGGDYALAPGSQTSDLSLPDCKVMVHDPHSLA |
